Experimental data taken from US20160264649A1.

Tests used:
Assay in all cases: cell-based or functional assay
[1] = target: HIV-1 Env of isolate 92 BR 020 (HIV-1)
[2] = target: HIV-1 Env of isolate MGRM-Chronic-B-004 (HIV-1)
[3] = target: HIV-1 Env of isolate MGRM-Chronic-B-008 (HIV-1)
[4] = target: HIV-1 Env of isolate MGRM-Chronic-B-002 (HIV-1)
[5] = target: HIV-1 Env of isolate SC422661.8 (HIV-1)
[6] = target: HIV-1 Env of isolate THR0.18 (HIV-1)
[7] = target: HIV-1 Env of isolate MGRM-Chronic-B-011 (HIV-1)
[8] = target: HIV-1 Env of isolate MG RM-C-026 (HIV-1)
[9] = target: HIV-1 Env of isolate PVO.4 (HIV-1)
[10] = target: HIV-1 Env of isolate CAAN.A2 (HIV-1)
[11] = target: HIV-1 Env of isolate MGRM-Chronic-B-018 (HIV-1)
[12] = target: HIV-1 Env of isolate MGRM-Chronic-B-017 (HIV-1)
[13] = target: HIV-1 Env of isolate MG RM-C-027 (HIV-1)
[14] = target: HIV-1 Env of isolate NL43 (HIV-1)
[15] = target: HIV-1 Env of isolate 93TH305 (HIV-1)
[16] = target: HIV-1 Env of isolate MG RM-C-028 (HIV-1)
[17] = target: HIV-1 Env of isolate SF162 (HIV-1) (UniProt P19550)
[18] = target: HIV-1 Env of isolate APV_17 (HIV-1)
[19] = target: HIV-1 Env of isolate TRJ04551.58 (HIV-1)
[20] = target: HIV-1 Env of isolate MGRM-Chronic-B-024 (HIV-1)
[21] = target: HIV-1 Env of isolate MG RM-C-020 (HIV-1)
[22] = target: HIV-1 Env of isolate MGRM-Chronic-B-012 (HIV-1)
[23] = target: HIV-1 Env of isolate MGRM-Chronic-B-003 (HIV-1)
[24] = target: HIV-1 Env of isolate TRO.11 (HIV-1)
[25] = target: HIV-1 Env of isolate 98IN022 (HIV-1)
[26] = target: HIV-1 Env of isolate JRFL (HIV-1)
[27] = target: HIV-1 Env of isolate MG RM-C-023 (HIV-1)
[28] = target: HIV-1 Env of isolate MG RM-C-022 (HIV-1)
[29] = target: HIV-1 Env of isolate MGRM-Chronic-B-020 (HIV-1)
[30] = target: HIV-1 Env of isolate VLGCB3 (HIV-1)
[31] = target: HIV-1 Env of isolate MG RM-C-024 (HIV-1)
[32] = target: HIV-1 Env of isolate MGRM-Chronic-B-023 (HIV-1)
[33] = target: HIV-1 Env of isolate MGRM-Chronic-B-001 (HIV-1)
[34] = target: HIV-1 Env of isolate MG RM-C-025 (HIV-1)
[35] = target: HIV-1 Env of isolate 6535.3 (HIV-1)
[36] = target: HIV-1 Env of isolate 93MW959 (HIV-1)
[37] = target: HIV-1 Env of isolate JRCSF (HIV-1) (UniProt P20871)
[38] = target: HIV-1 Env of isolate APV_13 (HIV-1)
[39] = target: HIV-1 Env of isolate 97ZA012 (HIV-1)
[40] = target: HIV-1 Env of isolate 93IN905 (HIV-1)
[41] = target: HIV-1 Env of isolate MGRM-Chronic-B-010 (HIV-1)
[42] = target: HIV-1 Env of isolate QH0692.42 (HIV-1)
[43] = target: HIV-1 Env of isolate APV_6 (HIV-1)

Substance: PGT-121 monoclonal antibody (4838_L06; 4873_E03)
- neutralization IC50 [1]: 0.014 µg/mL
- neutralization IC50 [2]: 0.009 µg/mL
- neutralization IC50 [3]: 0.007 µg/mL
- neutralization IC50 [4]: 0.386 µg/mL
- neutralization IC50 [5]: 0.098 µg/mL
- neutralization IC50 [6]: > 50 µg/mL
- neutralization IC50 [7]: > 50 µg/mL
- neutralization IC50 [8]: 0.002 µg/mL
- neutralization IC50 [9]: 0.137 µg/mL
- neutralization IC50 [10]: 0.011 µg/mL
- neutralization IC50 [11]: > 50 µg/mL
- neutralization IC50 [12]: > 50 µg/mL
- neutralization IC50 [13]: 0.011 µg/mL
- neutralization IC50 [14]: > 50 µg/mL
- neutralization IC50 [15]: 0.007 µg/mL
- neutralization IC50 [16]: 0.472 µg/mL
- neutralization IC50 [17]: 0.005 µg/mL
- neutralization IC50 [18]: 0.066 µg/mL
- neutralization IC50 [19]: 7.09 µg/mL
- neutralization IC50 [20]: 0.195 µg/mL
- neutralization IC50 [21]: > 50 µg/mL
- neutralization IC50 [22]: 0.036 µg/mL
- neutralization IC50 [23]: 0.011 µg/mL
- neutralization IC50 [24]: 0.008 µg/mL
- neutralization IC50 [25]: 0.007 µg/mL
- neutralization IC50 [26]: 0.021 µg/mL
- neutralization IC50 [27]: 0.017 µg/mL
- neutralization IC50 [28]: 0.015 µg/mL
- neutralization IC50 [29]: 0.004 µg/mL
- neutralization IC50 [30]: 0.005 µg/mL
- neutralization IC50 [31]: 0.052 µg/mL
- neutralization IC50 [32]: 0.005 µg/mL
- neutralization IC50 [33]: 0.102 µg/mL
- neutralization IC50 [34]: 46.8 µg/mL
- neutralization IC50 [35]: 0.005 µg/mL
- neutralization IC50 [36]: 0.013 µg/mL
- neutralization IC50 [37]: 0.027 µg/mL
- neutralization IC50 [38]: 0.251 µg/mL
- neutralization IC50 [39]: 0.002 µg/mL
- neutralization IC50 [40]: 0.005 µg/mL
- neutralization IC50 [41]: 0.014 µg/mL
- neutralization IC50 [42]: 0.823 µg/mL

Substance: PGT-122 monoclonal antibody (4877_D15)
- neutralization IC50 [1]: 0.021 µg/mL
- neutralization IC50 [2]: 0.008 µg/mL
- neutralization IC50 [43]: 0.019 µg/mL
- neutralization IC50 [3]: 0.017 µg/mL
- neutralization IC50 [4]: 1.8 µg/mL
- neutralization IC50 [5]: 0.103 µg/mL
- neutralization IC50 [6]: > 50 µg/mL
- neutralization IC50 [7]: > 50 µg/mL
- neutralization IC50 [8]: 0.006 µg/mL
- neutralization IC50 [9]: 0.689 µg/mL
- neutralization IC50 [10]: 0.011 µg/mL
- neutralization IC50 [11]: > 50 µg/mL
- neutralization IC50 [12]: 5.66 µg/mL
- neutralization IC50 [13]: 0.039 µg/mL
- neutralization IC50 [14]: > 50 µg/mL
- neutralization IC50 [15]: 0.013 µg/mL
- neutralization IC50 [16]: 2.22 µg/mL
- neutralization IC50 [17]: 0.009 µg/mL
- neutralization IC50 [18]: 0.25 µg/mL
- neutralization IC50 [19]: > 50 µg/mL
- neutralization IC50 [20]: 2.31 µg/mL
- neutralization IC50 [21]: 14 µg/mL
- neutralization IC50 [22]: 0.066 µg/mL
- neutralization IC50 [23]: 0.008 µg/mL
- neutralization IC50 [24]: 0.011 µg/mL
- neutralization IC50 [25]: 0.032 µg/mL
- neutralization IC50 [26]: 0.026 µg/mL
- neutralization IC50 [27]: 0.027 µg/mL
- neutralization IC50 [28]: 0.012 µg/mL
- neutralization IC50 [29]: 0.005 µg/mL
- neutralization IC50 [30]: 0.008 µg/mL
- neutralization IC50 [31]: 0.102 µg/mL
- neutralization IC50 [32]: 0.01 µg/mL
- neutralization IC50 [33]: 0.138 µg/mL
- neutralization IC50 [34]: 8.69 µg/mL
- neutralization IC50 [35]: 0.006 µg/mL
- neutralization IC50 [36]: 0.016 µg/mL
- neutralization IC50 [37]: 0.057 µg/mL
- neutralization IC50 [38]: 0.778 µg/mL
- neutralization IC50 [39]: 0.004 µg/mL
- neutralization IC50 [40]: 0.013 µg/mL
- neutralization IC50 [41]: 0.018 µg/mL
- neutralization IC50 [42]: 0.493 µg/mL

Substance: PGT-123 monoclonal antibody (4858_P08)
- neutralization IC50 [1]: 0.008 µg/mL
- neutralization IC50 [2]: 0.008 µg/mL
- neutralization IC50 [43]: 0.023 µg/mL
- neutralization IC50 [3]: 0.01 µg/mL
- neutralization IC50 [4]: 0.234 µg/mL
- neutralization IC50 [5]: 0.039 µg/mL
- neutralization IC50 [6]: > 50 µg/mL
- neutralization IC50 [7]: > 50 µg/mL
- neutralization IC50 [8]: 0.001 µg/mL
- neutralization IC50 [9]: 0.105 µg/mL
- neutralization IC50 [10]: 0.015 µg/mL
- neutralization IC50 [11]: > 50 µg/mL
- neutralization IC50 [12]: > 50 µg/mL
- neutralization IC50 [13]: 0.02 µg/mL
- neutralization IC50 [14]: > 50 µg/mL
- neutralization IC50 [15]: 0.008 µg/mL
- neutralization IC50 [16]: 0.402 µg/mL
- neutralization IC50 [17]: 0.005 µg/mL
- neutralization IC50 [18]: 0.114 µg/mL
- neutralization IC50 [19]: 16.9 µg/mL
- neutralization IC50 [20]: > 50 µg/mL
- neutralization IC50 [21]: > 50 µg/mL
- neutralization IC50 [22]: 0.227 µg/mL
- neutralization IC50 [23]: 0.008 µg/mL
- neutralization IC50 [24]: 0.008 µg/mL
- neutralization IC50 [25]: 0.011 µg/mL
- neutralization IC50 [26]: 0.014 µg/mL
- neutralization IC50 [27]: 0.011 µg/mL
- neutralization IC50 [28]: 0.01 µg/mL
- neutralization IC50 [29]: 0.005 µg/mL
- neutralization IC50 [30]: 0.004 µg/mL
- neutralization IC50 [31]: 0.195 µg/mL
- neutralization IC50 [32]: 0.055 µg/mL
- neutralization IC50 [33]: 0.15 µg/mL
- neutralization IC50 [34]: 13.3 µg/mL
- neutralization IC50 [35]: 0.004 µg/mL
- neutralization IC50 [36]: 0.011 µg/mL
- neutralization IC50 [37]: 0.046 µg/mL
- neutralization IC50 [38]: 0.138 µg/mL
- neutralization IC50 [39]: 0.002 µg/mL
- neutralization IC50 [40]: 0.004 µg/mL
- neutralization IC50 [41]: 0.009 µg/mL
- neutralization IC50 [42]: 0.158 µg/mL
